Laboratory results: patent publication US11891634B2, “PDE5A destabilizing domains” (The Board of Trustees of the Leland Stanford Junior …, priority 2017, dated 2024)

Assays:
[1] = test system: NIH3T3 cells expressing AcGFP-PDE5A fusions; assay: FACS analysis of C-terminal PDE5A mutants (AcGFP-PDE5A fusions), Sildenafil vs vehicle; type: cell-based, mouse; details: Table 2, 24 hours; for Mean Fluorescence intensity: NIH3T3
Procedure: The NIH3T3 cell line was cultured in DMEM supplemented with 10% heat-inactivated donor bovine serum (Invitrogen), 2 mM glutamine, 100 U/ml penicillin and 100 μg/ml streptomycin.
The ΦNX ecotropic packaging cell line was transfected using standard Lipofectamine 2000 protocols. Viral supernatants were harvested 48 hours, post transfection, filtered and concentrated 10-fold using Amicon Ultra centrifugal filter device with a 100kDa cutoff. NIH 3T3 cells were incubated with concentrated retroviral supernatants supplemented with 4 μg/ml polybrene for 4 hours at 37° C. Cells were washed once with PBS and cultured in growth media for 24-36 hours to allow for viral integration.
The transduced NIH3T3 cells were subjected to analysis using fluorescence-activated cell sorting (FACS) to screen the libraries of PDE5A mutants. 24 hours prior to analysis, transduced NIH3T3 cells were plated at 1×10^5 cells per well of a 12-well plate. Cells were removed from the plate using PBS and 2 mM EDTA, washed once with PBS, and resuspended in 200 μL, PBS. […]
To identify destabilizing domains that are responsive to the PDE5A ligand, Sildenafil, a cell-based screening assay was employed in which the fluorescence of green fluorescent protein derived from Aequorea coerulescens (AcGFP) served as an indicator of PDE5A stability. […]
A library of AcGFP-PDE5A fusions i.e., C-terminal PDE5A mutants was screened using the cell-based screening assay described previously to identify C-terminal destabilizing domains. […] The stabilization ratio was calculated as the fold change in GFP intensity of the AcGFP-PDE5A construct in Sildenafil treated sample compared to vehicle alone treated sample. […]
Residue D764 was identified as a mutational hotspot from sequence analysis. […] AcGFP-PDE5A variants were evaluated for Sildenafil dependent stabilization via FACS as described previously. […] The stabilization ratio was calculated as the fold change in GFP intensity of the AcGFP-PDE5A construct in Sildenafil treated sample compared to vehicle alone treated sample. […]

[2] = test system: HCT 116 cells transduced with the PDE5A DD derived GFP constructs; assay: Response to Tadalafil, GFP expression by FACS in HCT116; type: cell-based, human; details: for MFI / Stabilization ratio with Tadalafil: 48 hours, HCT116
Procedure: PDE5AN (#3) was cloned as AcGFP fusion into pELNS vector carrying mCherry marker and packaged in lentiviral vectors. HCT116 cells were transduced with the construct and stable integrants were selected by cell sorting using mCherry marker. Cells were treated with vehicle (dimethyl sulfoxide, DMSO) or varying doses of Tadalafil (TDF) for 48 hrs with doses ranging from 0.01 μM to 100 μM. Following the treatment, cells were analyzed for GFP expression using FACS. Basal expression was calculated as the ratio of GFP signal in the absence of ligand for a given cell line to auto fluorescence of parental HCT-116 cells. Stabilization ratio was calculated as the ratio of the GFP signal observed in the presence of stabilizing ligand to the signal from the same cell line in the absence of ligand.
HCT 116 cells transduced with the PDE5A DD derived GFP constructs were also tested with increasing doses of Tadalafil. The HCT116 cells were incubated for 48 hours with Tadalafil starting at dose 0.01 μM to 100 μM. The GFP intensity of the Tadalafil treated samples was compared to the parental untransduced HCT116 and DMSO treated cells for each construct. The mean fluorescence intensity was calculated for each sample and used to calculate the stabilization ratios as well as the basal expression for each construct. The stabilization ratios are shown in Table 19 and Table 20 and the basal expression is show in Table 21.

B1: PDE5AC (#42): AcGFP fused to C-terminal DD 535-860 of PDE5A (E535D, K555R, F564S, Q589R, K630R, C677R, N742S, I799T, M816A), SEQ ID NO. 28 (protein)
chain: DETRELQSLAAAVVPSAQTLRITDFSFSDSELSDLETALCTIRMFTDLNLVQNFRMKHEVLCRWILSVKKNYRKNVAYHNWRHAFNTAQCMFAALRAGKIQNKLTDLEILALLIAALSHDLDHRGVNNSYIQRSEHPLAQLYRHSIMEHHHFDQCLMILNSPGNQILSGLSIEEYKTTLKIIKQAILATDLALYIKRRGEFFELIRKSQFNLEDPHQKELFLAMLMTACDLSAITKPWPIQQRIAELVATEFFDQGDRERKELNTEPTDLMNREKKNKIPSAQVGFIDAICLQLYEALTHVSEDCFPLLDGCRKNRQKWQALAEQQ
modifications: /note=“Description of Artificial Sequence Synthetic Destabilizing Domain (DD)”
Mean Fluorescence intensity ([1]; Sildenafil (10 μM) +): 5861
Mean Fluorescence intensity ([1]; Sildenafil (10 μM) −, vehicle alone): 1658
Stabilization ratio ([1]; fold change in GFP intensity, Sildenafil 10 μM vs vehicle alone): 3.5
MFI ([2]; DMSO (no Tadalafil)): 22601
Basal expression ([2]; Table 21, MFI with DMSO / parental HCT116, Tadalafil experiment): 17.66
Stabilization ratio with Tadalafil ([2]; Tadalafil 0.01 μM vs DMSO): 1.0
MFI ([2]; Tadalafil 0.01 μM): 22787
Stabilization ratio with Tadalafil ([2]; Tadalafil 0.02 μM vs DMSO): 1.0
MFI ([2]; Tadalafil 0.02 μM): 23274
Stabilization ratio with Tadalafil ([2]; Tadalafil 0.05 μM vs DMSO): 1.0
MFI ([2]; Tadalafil 0.05 μM): 23278
Stabilization ratio with Tadalafil ([2]; Tadalafil 0.14 μM vs DMSO): 1.1
MFI ([2]; Tadalafil 0.14 μM): 24532
Stabilization ratio with Tadalafil ([2]; Tadalafil 0.41 μM vs DMSO): 1.2
MFI ([2]; Tadalafil 0.41 μM): 26765
Stabilization ratio with Tadalafil ([2]; Tadalafil 1.23 μM vs DMSO): 1.6
MFI ([2]; Tadalafil 1.23 μM): 35325
Stabilization ratio with Tadalafil ([2]; Tadalafil 3.7 μM vs DMSO): 2.6
MFI ([2]; Tadalafil 3.7 μM): 59821
Stabilization ratio with Tadalafil ([2]; Tadalafil 11.11 μM vs DMSO): 4.1
MFI ([2]; Tadalafil 11.11 μM): 92400
Stabilization ratio with Tadalafil ([2]; Tadalafil 33.33 μM vs DMSO): 5.4
MFI ([2]; Tadalafil 33.33 μM): 122658
Stabilization ratio with Tadalafil ([2]; Tadalafil 100 μM vs DMSO): 6.2
MFI ([2]; Tadalafil 100 μM): 139002
